Test results reported in patent US20190135932A1 (Pfizer, published 2019).
Where “and” joins values, the source holds several entries; their conditions need not be identical. Equal entries are not always repeated.

Key:
[1] = target: T1, human OX40R-Ig fusion protein (extracellular domain, amino acids 1-220, of human OX40R fused to the constant … (human, UniProt P43489 29-220)); experiment: ELISA on coated OX40-Ig fusion protein
T1 construct: range 1-220; Range 1-220 as printed; also called OX40-Ig; OX40-human IgG1 fusion protein; not shown: constant region of human IgG1
T1 sequence (looked up): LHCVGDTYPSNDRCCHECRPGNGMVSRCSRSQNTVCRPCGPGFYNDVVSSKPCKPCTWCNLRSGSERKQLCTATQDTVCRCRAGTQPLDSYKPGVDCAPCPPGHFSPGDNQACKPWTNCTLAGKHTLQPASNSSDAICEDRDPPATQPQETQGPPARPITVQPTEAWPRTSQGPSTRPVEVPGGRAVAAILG

[2] = target: T2, CD271-Ig (Alexis Biochemicals) (human, UniProt P08138 29-250); experiment: ELISA on coated receptor-Ig fusion protein
T2 construct: extracellular domain; Bought; also called nerve growth factor receptor (CD271)
Experimental: (§1) Maxisorb 96-well plates (Nunc, Roskilde, Denmark) were coated with 100 μl of human TNFα receptor family member fusion proteins at 0.25 μg/ml diluted in BupH™ Carbonate buffer, pH 9.4 (Pierce, Rockford, Ill.) and incubated overnight at 4° C. The selectivity receptor fusion proteins tested included CD40-Ig (Alexis Biochemicals, San Diego, Calif.), CD137-Ig (R&D Systems, Minneapolis, Minn.) and CD271-Ig (Alexis Biochemicals, San Diego, Calif.). Also included as the positive control with each assay was the OX40-Ig fusion protein (in-house construct, Bioexpress, 97/2117). Plates were then washed three times with wash buffer containing 0.05% Tween 20 (Sigma, St Louis, Mo.) diluted in PBS and blocked with 300 μl of 0.5% BSA (Sigma, St Louis, Mo.) in PBS (Sigma, St Louis, Mo.) for 1 hour at RT°. Next, the plates were washed and 100 μl/well of anti-human OX40 reactive antibodies were added to the plates at various concentrations and incubated for 1 hour at RT°. Plates were thoroughly washed three times and OX40R antibody binding was detected with a horse radish peroxidase labeled anti-human kappa chain antibody (Bethyl Laboratories, Montgomery, Tex.) at 25 ng/ml for 1 hour at RD°. Plates were then washed three times which was followed by the addition of 100 μl/well of 1-Step Turbo-TMB substrate (Pierce, Rockford, Ill.) for 30 minutes at RT. The reaction was stopped by adding an equal volume of 2M H₂ SO₄. Absorbance was read at 450 nm on a Molecular Devices Spectra Max 340 (Molecular Devices, Sunnyvale, Calif.).

[3] = target: T3, CD40-Ig (Alexis Biochemicals) (human, UniProt P25942 21-193); experiment: ELISA on coated receptor-Ig fusion protein
T3 construct: extracellular domain; Bought; also called CD40 receptor
Experimental: as §1

CD137-Ig (R&D Systems) = target: T4, CD137-Ig (R&D Systems) (human, UniProt Q07011 24-186); experiment: ELISA on coated receptor-Ig fusion protein
T4 construct: extracellular domain; Bought; also called 4-1BB receptor (CD137)
Experimental: as §1

[4] = target: T5, commercially available fusion protein containing the extracellular domain of the murine OX40R (mouse, UniProt P47741 20-211); experiment: ELISA
T5 construct: extracellular domain; Bought; also called mouse OX40R fusion protein
T5 sequence (looked up): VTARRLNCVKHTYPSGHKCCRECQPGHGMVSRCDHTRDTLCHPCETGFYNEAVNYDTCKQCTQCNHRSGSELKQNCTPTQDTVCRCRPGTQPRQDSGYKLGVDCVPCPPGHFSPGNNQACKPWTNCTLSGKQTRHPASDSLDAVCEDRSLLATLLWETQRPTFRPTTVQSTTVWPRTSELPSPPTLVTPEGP

[5] = target: cynomolgus OX40R on activated cynomolgus monkey T cells / PBMCs (cynomolgus monkey); experiment: cell-based or functional assay
[6] = target: T6, mouse OX40R on activated mouse T cells (mouse, UniProt P47741 20-272); experiment: FACS, Alexa Fluor 647 conjugated antibody on activated T cells
T6 construct: whole, on cells; also called mouse cells; murine OX40R
T6 sequence (looked up): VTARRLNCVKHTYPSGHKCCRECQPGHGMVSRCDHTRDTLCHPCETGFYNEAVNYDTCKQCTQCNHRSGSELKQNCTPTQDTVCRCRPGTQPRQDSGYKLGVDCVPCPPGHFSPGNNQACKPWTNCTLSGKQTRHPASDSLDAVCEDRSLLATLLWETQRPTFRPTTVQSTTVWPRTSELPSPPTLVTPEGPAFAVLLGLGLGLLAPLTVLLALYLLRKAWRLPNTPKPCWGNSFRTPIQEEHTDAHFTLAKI
Experimental: (§2) Rat whole blood collected in heparinized syringes was diluted 1:3 in warm HBSS. Next, 5 mls was carefully layered over an equal volume of Lympholyte-Rat (Cedarlane Laboratories, Westbury, N.Y.). The tubes were centrifuged for 20 minutes at 1500 RPM. The PBMCs interface was collected, washed twice and the cell pellet was re-adjusted to 2×10⁶/ml in TCM. Two mls of cells were added to each well of a 24 well plate and stimulated for 24-48 hours with PHA (Remel, Lenexa, Kans.) at 10 ng/ml prior to flow cytometry staining.
(§3) Stimulated mouse, rat, rabbit, dog and cynomolgus PBMCs and the 300-19 cell line expressing the cynomolgus OX40 receptor were used to test for human OX40 antibody species cross-reactivity. Human OX40 expressing activated T lymphocytes and OX40 transduced 300-19 cells were used as positive controls. Cells (5.0×10⁵/tube) were washed once in cold wash buffer (PBS, 2% FBS and 0.02% sodium azide) and 100 μl/tube of Alexa Fluor 647 conjugated control or OX40 reactive antibodies at 5 ug/ml was added to each tube. The antibodies were labeled using an Alex Fluor 647 protein labeling kit as described by the manufacturer (Molecular Probes, Eugene, Oreg.). […] Antibody staining was measured and analyzed using a Becton Dickinson FACSCalibur and CellQuest software (San Jose, Calif.).

[7] = target: T7, rat OX40R on activated rat T cells (rat, UniProt P15725 20-271); experiment: as above
T7 construct: whole, on cells; also called rat cells
T7 sequence (looked up): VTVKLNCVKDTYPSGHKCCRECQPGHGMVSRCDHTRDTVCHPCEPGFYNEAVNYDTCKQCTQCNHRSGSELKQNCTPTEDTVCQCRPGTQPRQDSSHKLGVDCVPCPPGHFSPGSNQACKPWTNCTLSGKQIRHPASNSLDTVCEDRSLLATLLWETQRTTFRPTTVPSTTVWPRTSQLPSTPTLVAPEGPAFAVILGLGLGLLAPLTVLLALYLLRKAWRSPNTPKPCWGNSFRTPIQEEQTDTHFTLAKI
Experimental: as §2, §3

T4 sequence (Q07011 whole entry, the tested form may be a part): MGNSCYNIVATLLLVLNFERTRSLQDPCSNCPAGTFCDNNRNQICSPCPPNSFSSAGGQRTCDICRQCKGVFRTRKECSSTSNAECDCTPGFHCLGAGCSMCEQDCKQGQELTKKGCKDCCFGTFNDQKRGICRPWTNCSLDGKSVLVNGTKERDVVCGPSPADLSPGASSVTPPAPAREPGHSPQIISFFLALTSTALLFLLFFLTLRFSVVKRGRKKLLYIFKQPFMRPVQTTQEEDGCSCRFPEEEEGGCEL
T3 sequence (P25942 21-193): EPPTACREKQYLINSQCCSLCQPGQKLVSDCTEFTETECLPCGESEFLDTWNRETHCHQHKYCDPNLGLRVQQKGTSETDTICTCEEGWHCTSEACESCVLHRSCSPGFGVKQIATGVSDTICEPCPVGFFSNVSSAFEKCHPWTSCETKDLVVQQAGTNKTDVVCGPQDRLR
T2 sequence (P08138 29-250): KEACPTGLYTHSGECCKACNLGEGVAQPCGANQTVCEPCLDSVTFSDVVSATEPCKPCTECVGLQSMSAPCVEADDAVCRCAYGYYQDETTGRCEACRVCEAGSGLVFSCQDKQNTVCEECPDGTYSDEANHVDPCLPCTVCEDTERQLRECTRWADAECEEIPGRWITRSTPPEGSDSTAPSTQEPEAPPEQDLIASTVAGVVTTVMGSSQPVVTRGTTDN

Binder | EC50 [1] | Selectivity (Binding to CD40, CD137, CD271) [2] [nM] | Selectivity (Binding to CD40, CD137, CD271) [3] [nM] | Selectivity (Binding to CD40, CD137, CD271) (CD137-Ig (R&D Systems)) [nM] | binding result [4] | EC50 of anti-CD3 induced IL-2 production by cynomolgus T cells, donor 2325 [5] [ng/mL] | EC50 of anti-CD3 induced IL-2 production by cynomolgus T cells, donor 32081 [5] [ng/mL] | EC50 of anti-CD3 induced IL-2 production by cynomolgus T cells, donor 32750 [5] [ng/mL] | EC50 of anti-CD3 induced IL-2 production by cynomolgus T cells, donor 32842 [5] [ng/mL] | EC50 of anti-CD3 induced IL-2 production by cynomolgus T cells, donor 33062 [5] [ng/mL] | EC50 of anti-CD3 induced IL-2 production by cynomolgus T cells, donor 33080 [5] [ng/mL] | EC50 of anti-CD3 induced IL-2 production by cynomolgus T cells, donor 33081 [5] [ng/mL] | Selectivity (binding) [2] | Selectivity (binding) [3] | Selectivity (binding) (CD137-Ig (R&D Systems)) | binding result [6] | binding result [7]
human monoclonal antibody 18D8 (antibody, human IgG2, kappa, V domains shown) VH: EVQLVESGGGLVQPGRSLRLSCAASGFTFDDYAMHWVRQAPGKGLEWVSGISWNSGSIGYADSVKGRFTISRDNAKNSLYLQMNSLRAEDTALYYCAKDQSTADYYFYYGMDVWGQGTTVTVSS VL: EIVVTQSPATLSLSPGERATLSCRASQSVSSYLAWYQQKPGQAPRLLIYDASNRATGIPARFSGSGSGTDFTLTISSLEPEDFAVYYCQQRSNWPTFGQGTKVEIKR | 0.034 µg/mL and 0.23 nM | > 700 | > 700 | > 700 |  |  |  |  |  |  |  |  |  |  |  |  | 
human monoclonal antibody 11D4 (antibody, V domains shown, IgG2 heavy chain, kappa light chain; allotypes G2(n-) and Km3; Alexa Fluor 647 conjugate was used in the species cross-reactivity FACS) VH: EVQLVESGGGLVQPGGSLRLSCAASGFTFSSYSMNWVRQAPGKGLEWVSYISSSSSTIDYADSVKGRFTISRDNAKNSLYLQMNSLRDEDTAVYYCARESGWYLFDYWGQGTLVTVSS VL: DIQMTQSPSSLSASVGDRVTITCRASQGISSWLAWYQQKPEKAPKSLIYAASSLQSGVPSRFSGSGSGTDFTLTISSLQPEDFATYYCQQYNSYPPTFGGGTKVEIKR |  |  |  |  | no binding | 2 | 7 | 7 | 11 | 28 | 31 | 8 | > 100 µg/mL and > 700 nM | > 100 µg/mL and > 700 nM | > 100 µg/mL and > 700 nM | no binding (tested: 5 ug/ml) | no binding (tested: 5 ug/ml)
